“Also recorded” adds a separate entry of the source. Where no end group is shown, it is not given here.

We go through five molecules from patent US8889620B2, “Pharmaceutical compositions comprising peptide antagonists of vascular endothelial growth factor” (Children's Medical Center Corporation, priority 1997, dated 2014).

The target in test [1] is T1, KDR/Flk-1 and VEGF165R on HUVEC (Homo sapiens, UniProt O14786).
T1 construct: HUVEC, which express both KDR/Flk-1 and VEGF165R; endogenous in cells; host or cells: HUVEC (ATCC)
Briefly: Inhibition of 125I-VEGF165 binding to HUVEC. Here is the method:
(§1) FIGS. 3A-3C. Inhibition of ^125I-VEGF165 binding to HUVEC, MDA MB 231 cells, and PAE-KDR cells by GST-EX 7+8. ^125I-VEGF165 (5 ng,/ml) was bound to subconfluent cultures of HUVEC (3A), MDA MB 23 1 cells (3B), and PAE-KDR cells (3C) in 48-well dishes in the presence of increasing amounts of GST-Ex 7+8 (closed 20 square) or control GST protein (open squares). At the end of a 2-h incubation, the cells were washed and lysed, and the cell-associated radioactivity was determined with a γ-counter. The counts obtained are expressed as the percentage of the counts obtained in the presence of PBS without addition of GST or fusion protein.
FIGS. 5A and 5B. Localization of a core inhibitory region within exon 7. GST-Ex 7 fusion proteins containing full-length exon 7-encoded domain or truncations at the N-terminal and C-terminal ends were prepared as described in the Examples. ^125I-VEGF165 (5 ng/ml) was bound to subconfluent HUVEC cultures as described in FIG. 3, in the presence of increasing concentrations of the GST fusion proteins. At the end of a 2-h incubation, the cells were washed and lysed, and the cell-associated radioactivity was determined with a y counter. The counts obtained are expressed as percentage of the counts obtained in the presence of PBS without fusion protein B, the amino acid sequences of VEGF exon 7 derivatives. These derivatives were prepared to contain the first cysteine residue of exon 8 at their C termini to keep an even number of cysteine residue. FIG. 5B discloses SEQ ID NO: 19.
(§2) Binding and cross-linking experiments using 125I-VEGF165 and 125I-VEGF121 were performed at described previously (Gitay-Goren, et al., J. Biol. Chem., 287, 6003-6096 (1992), Soker, et al., J: Biol. Chem., 271,5761-5767 (1996)). VEGF binding was quantified by measuring the cell-associated radioactivity in a y-counter (Beckman, Gamma 5500). The counts represent the average of three walls. All experiments were repeated at least three times, and similar results were obtained. 125I-VEGF cross-linked complexes were resolved by 6% SDS-PAGE, and the gels were exposed to a phosphor screen and scanned after 24 h by a PhosphorImager (Molecular Dynamics). Subsequently, the gels were exposed to x-ray film.

For test [2], the target named is T2, VEGF165R on 231 cells (Homo sapiens, UniProt O14786).
T2 construct: to 231 cells which express only VEGF165R; endogenous in cells; host or cells: MDA-MB-231 (ATCC)
Briefly: Inhibition of 125I-VEGF165 binding to MDA-MB-231 (231) cells. Here is the method:
as §1, §2

Test [3] concerns the target T3, KDR/Flk-1 on PAE-KDR cells (Homo sapiens, UniProt P35968).
T3 construct: expressed in transfected cells; host or cells: porcine endothelial cells (PAE), gift of Dr. Claesson-Welsh
Nature of the test: Inhibition of 125I-VEGF165 binding to PAE-KDR cells. Also noted: species or system porcine endothelial cells transfected to express KDR/Flk-1. On the procedure:
as §1
Human umbilical vein endothelial cells (HUVEC) were obtained from the American Type Culture Collection (ATCC) (Rockville, Md.) and grown on gelatin-coated dishes in M-199 medium containing 20% fetal calf serum (FCS) and a mixture of glutamine, penicillin, and streptomycin (GPS). Basic FGF (1 nglml) was added to the culture medium every other day. Porcine endothelial cells (PAE), parental and transfected to express KDRElk-1 (PAE-KDR), were kindly provided by Dr. Lema Claesson-Welsh and grown in F12 medium containing 10% FCS and GPS as described (Waltenberger, et al., J. Biol. Chem., 269,26988-26995 (1994)). MDAMB-231 (231) cells were obtained from ATCC and grown in Bulbecoo's modified Eagle's medium containing 10% FCS and GPS.
as §2

Test [4] concerns VEGF165-induced proliferation of HUVEC. Briefly: Inhibition of VEGF165-stimulated HUVEC proliferation. In kind it is cell-based, human. Conditions: even at 25 ug/ml. On the procedure: (§3) FIG. 6. GST-Ex 7+8 fusion protein inhibits VEGF165-stimulated HUVEC proliferation. HUVEC were cultured in 96-well dishes (5,000 cell/well) as in FIG. 2. Increasing concentrations of VEGF165 (open circles), together with 15 ug/ml GST-Ex 7+8 (closed circles) or 25 ug/ml GST (squares), were added to the medium, and the cells were incubated for 4 more days. DNA synthesis was measured in HUVEC as described in FIG. 2. The results represent the average counts of three wells, and the standard deviations were determined.
FIG. 7. GST-Ex 7+8 fusion protein inhibits VEGF165 and VEGF121-stimulated HUVEC proliferation. Increasing concentration of VEGF165 (circles) or VEGF121 (square) with 15 ug/ml GST-Ex 7+8 (closed symbols) or without GST-Ex 7+8 (open symbols) were added to HUVEC, and [*H]thymidine incorporation into the DNA was measured as in FIG. 2. The results represent the average counts of three wells and the standard deviations were determined.
(§4) HUVEC were seeded in gelatin-coated 96-well dishes at 4,000 cells/200 Ul/well in M-199 containing 5% FCS and GPS. After 24 H, VEGF isoforms and VEGF exon 7-GST fusion proteins were added to the wells at the same time. The cells were incubated for 72 h, and [3H]thymidine (1 pC/ml) was added for 10-12 h. The medium was aspirated, and the cells were trypsinized and harvested by an automatic cell harvester (TOMTEC) and loaded onto Filtermats (Wallac). The Filtermats were scanned and cpm were determined by a MicroBeta counter (Wallac). The results represent the average of samples assayed in triplicate, and the standard derivations were determined. All experiments were repeated at least three times and similar results were obtained.

The target of test [5] is T2, VEGF165R on 231 cells. The conditions noted are these: Soker et al., J. Biol. Chem. 271, 5761-5767 (1996); cited from earlier work.
In a further test the target is VEGF165R (Homo sapiens, UniProt O14786). Nature of the test: Direct binding/cross-linking of 125I-GST-Ex 7 to HUVEC: VEGF165R. Also noted: HUVEC, which express both KDR/Flk-1 and VEGF165R; endogenous in cells; host or cells: HUVEC (ATCC). Conditions: cross-linking, 1 ug/ml heparin, FIG. 1 lane 3; listed as exon 7 fusion protein. On the procedure: (§5) FIG. 1. Cross-linking of 1 ^125I-VEGF165, ^125I-VEGF121 and ^125I-GST-EX 7 to HUVEC. ^125I-VEGF165 (5 ng/ml) (lane 1) or ^125I-VEGF121 (10 ng/ml) (lane 2) or ^125I-GST-EX 7 (50 nglml) (lane 3) were bound to subconfluent cultures of HUVEC in 6-cm dishes. The binding was carried out in the presence of 1 ug/ml heparin. At the end of a 2-H incubation, each ^125I-VEGF isoform was chemically cross-linked to the cell surface. The cells were lysed and proteins were resolved by 6% SDS-PAGE. The polyacrylamide gel was dried and exposed to x-ray film.
as §2

For another test, the target named is KDR/Flk-1 (Homo sapiens, UniProt P35968). Briefly: Direct binding/cross-linking of 125I-GST-Ex 7 to HUVEC: KDR/Flk-1. More on the design: HUVEC, which express both KDR/Flk-1 and VEGF165R; endogenous in cells; host or cells: HUVEC (ATCC). Conditions: cross-linking, 1 ug/ml heparin, FIG. 1 lane 3; listed as exon 7 fusion protein. Here is the method:
as §5, §2

In another test the test system is HUVEC. Briefly: HUVEC proliferation ([3H]thymidine incorporation) in response to VEGF isoforms. It is filed as cell-based, human. Here is the method: FIG. 2. HUVEC proliferation in response to VEGF165 and VEGF121 HUVEC were cultured in 96-well dishes (5,000 cell/well) for 24 h. Increasing amounts of VEGF165 (closed circles) or VEGF121 (open circles) were added to the medium, and the cells were incubated for 3 more days. DNA synthesis based on the incorporation of [3H] thymidine into HUVEC DNA was measured as described in the Examples. The results represent the average counts in three wells, and the standard deviations were determined.
as §3, §4

Setting [6] is: control GST protein, even at 20 μg/ml.

T1 sequence (O14786 22-923): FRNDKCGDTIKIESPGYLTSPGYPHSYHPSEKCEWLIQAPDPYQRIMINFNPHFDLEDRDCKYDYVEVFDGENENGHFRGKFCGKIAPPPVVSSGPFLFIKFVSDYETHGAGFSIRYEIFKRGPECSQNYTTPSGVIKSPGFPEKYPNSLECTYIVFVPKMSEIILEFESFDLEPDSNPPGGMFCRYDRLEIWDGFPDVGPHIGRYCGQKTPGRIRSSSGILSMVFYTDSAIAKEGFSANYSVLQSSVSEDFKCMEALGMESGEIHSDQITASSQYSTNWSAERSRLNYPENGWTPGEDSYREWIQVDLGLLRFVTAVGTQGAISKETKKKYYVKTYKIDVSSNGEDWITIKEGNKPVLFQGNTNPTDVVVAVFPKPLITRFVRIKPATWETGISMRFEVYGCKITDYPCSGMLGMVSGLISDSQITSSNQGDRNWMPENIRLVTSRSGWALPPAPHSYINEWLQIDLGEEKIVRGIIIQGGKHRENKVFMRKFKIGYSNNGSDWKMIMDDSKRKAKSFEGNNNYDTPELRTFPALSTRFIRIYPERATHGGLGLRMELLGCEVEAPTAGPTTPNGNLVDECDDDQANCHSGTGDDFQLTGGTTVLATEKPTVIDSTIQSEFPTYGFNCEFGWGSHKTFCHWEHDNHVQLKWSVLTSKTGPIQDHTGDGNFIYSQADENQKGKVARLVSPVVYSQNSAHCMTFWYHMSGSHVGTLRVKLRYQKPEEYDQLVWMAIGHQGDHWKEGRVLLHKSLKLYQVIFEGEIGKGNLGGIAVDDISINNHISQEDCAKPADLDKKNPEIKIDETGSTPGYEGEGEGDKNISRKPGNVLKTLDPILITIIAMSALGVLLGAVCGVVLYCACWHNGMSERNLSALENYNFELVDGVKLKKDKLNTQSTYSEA
T2 sequence (O14786 22-923): as above
T3 sequence (P35968 20-1356): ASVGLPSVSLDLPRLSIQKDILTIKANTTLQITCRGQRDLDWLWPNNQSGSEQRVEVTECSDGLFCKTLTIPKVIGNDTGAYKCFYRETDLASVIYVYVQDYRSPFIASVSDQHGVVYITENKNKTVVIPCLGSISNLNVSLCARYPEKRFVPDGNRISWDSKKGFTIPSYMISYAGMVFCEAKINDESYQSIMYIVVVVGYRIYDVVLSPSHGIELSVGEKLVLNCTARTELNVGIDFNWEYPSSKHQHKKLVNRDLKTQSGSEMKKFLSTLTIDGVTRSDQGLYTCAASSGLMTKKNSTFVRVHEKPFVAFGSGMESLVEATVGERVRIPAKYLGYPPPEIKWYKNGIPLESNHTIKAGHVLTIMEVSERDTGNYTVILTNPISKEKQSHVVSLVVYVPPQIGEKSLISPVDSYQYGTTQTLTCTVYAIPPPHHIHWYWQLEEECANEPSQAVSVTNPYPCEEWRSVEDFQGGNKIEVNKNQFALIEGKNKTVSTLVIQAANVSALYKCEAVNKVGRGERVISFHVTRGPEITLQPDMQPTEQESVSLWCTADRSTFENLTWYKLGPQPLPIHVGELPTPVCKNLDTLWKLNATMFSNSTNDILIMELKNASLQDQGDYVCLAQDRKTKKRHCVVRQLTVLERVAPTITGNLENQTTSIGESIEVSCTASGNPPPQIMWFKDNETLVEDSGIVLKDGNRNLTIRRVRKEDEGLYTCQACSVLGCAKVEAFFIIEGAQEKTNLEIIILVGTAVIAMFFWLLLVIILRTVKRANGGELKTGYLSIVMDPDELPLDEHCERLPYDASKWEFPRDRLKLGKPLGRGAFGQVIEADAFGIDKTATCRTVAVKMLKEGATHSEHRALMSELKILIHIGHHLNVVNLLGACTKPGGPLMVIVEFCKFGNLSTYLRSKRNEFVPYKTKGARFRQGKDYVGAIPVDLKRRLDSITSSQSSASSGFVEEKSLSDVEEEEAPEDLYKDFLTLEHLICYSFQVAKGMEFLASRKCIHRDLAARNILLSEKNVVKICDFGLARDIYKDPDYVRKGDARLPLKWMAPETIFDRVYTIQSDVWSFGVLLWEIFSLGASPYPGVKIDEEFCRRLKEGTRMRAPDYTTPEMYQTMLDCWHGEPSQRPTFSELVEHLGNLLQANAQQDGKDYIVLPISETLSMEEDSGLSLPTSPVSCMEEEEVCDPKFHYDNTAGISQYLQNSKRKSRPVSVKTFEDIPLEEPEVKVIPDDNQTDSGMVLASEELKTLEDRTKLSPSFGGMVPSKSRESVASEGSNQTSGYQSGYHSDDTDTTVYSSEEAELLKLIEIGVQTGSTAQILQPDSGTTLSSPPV
VEGF165R, sequence (O14786 22-923): as the sequence (O14786 22-923) above
KDR/Flk-1, sequence (P35968 20-1356): as the sequence (P35968 20-1356) above

Regarding “GST protein: glutathione S-transferase alone, control protein prepared in a similar way [reference compound]”, in test [1] (setting [6]), the “effect of GST alone on 125I-VEGF165 binding to HUVEC (in words)” value is given as “no significant effect; also recorded: did not inhibit”. Also, the “effect of GST alone on 125I-VEGF165 binding to 231 cells (in words)” value in the test with VEGF165R on 231 cells [2] (setting [6]) was “no significant effect; also recorded: did not inhibit”. For the same molecule, the “effect of GST alone on 125I-VEGF165 binding to PAE-KDR cells (in words)” value in test [3] (setting [6]) is given as “no significant effect; also recorded: did not inhibit”. Moreover, the “inhibition of HUVEC proliferation by GST alone (in words)” value in test [4] was “did not inhibit”.

As for “GST-Ex 7: GST fusion protein with the entire 44 amino acid VEGF exon 7-encoded domain plus first cysteine residue of exon 8”, the “inhibition of 125I-VEGF165 binding to HUVEC” value in test [1] (2 ug/ml fusion protein, FIG. 5) is reported as 80%; in test [1] (125I-VEGF165 5 ng/ml, increasing concentrations of fusion protein, FIG. 3A), 85-95%. In test [1] (data not shown), the “inhibition of 125I-VEGF165 binding to HUVEC compared with GST-Ex 7+8 (in words)” value is listed as “comparable to that of GST-Ex 7+8”. Moreover, the “inhibition of 125I-VEGF165 binding to 231 cells” value with VEGF165R on 231 cells [2] (125I-VEGF165 5 ng/ml, increasing concentrations of fusion protein, FIG. 3B) turned out to be 98%. Moreover, in the test with VEGF165R on 231 cells [2] (data not shown), the “inhibition of 125I-VEGF165 binding to 231 cells compared with GST-Ex 7+8 (in words)” value is on record as “comparable to that of GST-Ex 7+8”. Moreover, the “inhibition of 125I-VEGF165 binding to PAE-KDR cells (in words)” value in test [3] (125I-VEGF165 5 ng/ml, FIG. 3C) is on record as “did not, however, inhibit at all”. Also, the “direct binding to VEGF165R on 231 cells (in words)” value with VEGF165R on 231 cells [5] is “binds directly”. Also, the “direct binding to VEGF165R on HUVEC (in words)” value with VEGF165R is “binds directly; also recorded: could bind”. Moreover, the “direct binding to KDR/Flk-1 on HUVEC (in words)” value with KDR/Flk-1 was “not and does not bind directly”.

As to “GST-Ex 7d-(1-10): GST-exon 7 fusion protein with the first 10 N-terminal amino acids of exon 7 deleted (HLFVQDPQTCKCSCKNTDSRCKARQLELNERTCRC; cysteine pairing not given here; also: GST fusion protein, side of fusion not given here)”, the “inhibitory activity on 125I-VEGF165 binding to HUVEC after deletion in exon 7, versus GST-Ex 7 (in words)” value in test [1] (FIG. 5, increasing concentrations) is “did not reduce the inhibitory activity”.

As to “VEGF165: human recombinant vascular endothelial growth factor 165 isoform produced in Sf-21 insect cells”, the “increase in the proliferation rate of HUVEC” value in the test on HUVEC (1-5 ng/ml VEGF165, FIG. 6) turned out to be 5.5 fold. Besides, the “concentration at which the proliferation increase peaks” value in the test with HUVEC (FIG. 6) was determined as 2.5 ng/mL. Also, in the test with HUVEC (HUVEC, FIG. 2), the “concentration for maximal stimulation of DNA synthesis” value is 4 ng/mL and the “increase in HUVEC proliferation over control at maximal stimulation” value stood at 8 fold. The “concentration for half-maximal stimulation of DNA synthesis” value with HUVEC (HUVEC, [3H]thymidine incorporation, FIG. 2) came out at 1 ng/mL.

B1: VEGF121: human recombinant vascular endothelial growth factor 121 isoform produced in Sf-21 insect cells (protein)
chain: APMAEGGGQNHHEVVKFMDVYQRSYCHPIETLVDIFQEYPDEIEYIFKPSCVPLMRCGGCCNDEGLECVPTEESNITMQIMRIKPHQGQHIGEMSFLQHNKCECRPKKDRARQEKCDKPRR
Regarding B1, in the test on HUVEC (HUVEC, FIG. 2), the “concentration for maximal stimulation of DNA synthesis” value stood at 20 ng/mL and the “increase in HUVEC proliferation over control at maximal stimulation” value is 4 fold.
